According to article doi:10.1101/2022.06.07.494932:

Columns and labels:
[1] = target: α-Synuclein WT, unlabelled (human) (UniProt P37840); experiment: ELISA
[2] = target: α-Synuclein A53T, unlabelled (human) (UniProt P37840); experiment: ELISA

intracellular α-Syn oligomer concentration after 1 day [1] [nM]	intracellular α-Syn oligomer concentration after 3 days [1] [nM]	intracellular α-Syn oligomer concentration after 3 days [2] [nM]	Substance
12.3	13.1	–	α-Synuclein WT, unlabelled (from UniProt P37840 1-140) (natural protein)
–	–	16.3	α-Synuclein A53T, unlabelled (from UniProt P37840 1-140) (natural protein)
